Measured values published in US20110189095A1, “CRKL TARGETING PEPTIDES” (The Board of Regents, of the University of Texas System, priority 2008, published 2011).

System: DU145 cells
Assay: Cell proliferation assay (WST-1)
Format: cell-based, human
Conditions: protein added exogenously 48 hours after siRNA transfection
From the text: In contrast, CRKL was not detected in control cell media as shown by immunoprecipitation either with anti-CRKL or with several control antibodies. […] Next, studies were undertaken to determine whether the CRKL secretion had any detectable effect(s) on cell proliferation and migration. […] As an additional control, it was shown that the decrease in cell proliferation could be rescued by exogenous CRKL (FIG. 8D) and only background levels of apoptosis (less than 1%) were detected in the CRKL siRNA knockdown cells or in serum-free medium cultured cells.
CRKL (mRNA accession # NM_005207), β1 integrin (mRNA accession # NM_002211), and control siRNAs were purchased (Santa Cruz, Ambion and Dharmacon). siRNA oligonucleotides sequences and corresponding manufacturers are summarized in (Table 3). Oligofectamine (Invitrogen) or DharmaFect (Dharmacon) were used to transfect siRNAs into DU145 cells (1-2×10^5 cells per well). The transfected cells were incubated for 48-72 hours prior to processing. […] Transfected cells were harvested and lysed in the presence of protease inhibitors. The tumor-homing phage binding activity was also examined in the CRKL knockdown cells. For rescue experiments, up to 1.5 μg of recombinant CRKL was exogenously added to CRKL siRNA transfected cells. […]

B1: exogenous CRKL: recombinant His-tag CRKL protein added exogenously (protein)
chain: MSSARFDSSDRSAWYMGPVSRQEAQTRLQGQRHGMFLVRDSSTCPGDYVLSVSENSRVSHYIINSLPNRRFKIGDQEFDHLPALLEFYKIHYLDTTTLIEPAPRYPSPPMGSVSAPNLPTAEDNLEYVRTLYDFPGNDAEDLPFKKGEILVIIEKPEEQWWSARNKDGRVGMIPVPYVEKLVRSSPHGKHGNRNSNSYGIPEPAHAYAQPQTTTPLPAVSGSPGAAITPLPSTQNGPVFAKAIQKRVPCAYDKTALALEVGDIVKVTRMNINGQWEGEVNGRKGLFPFTHVKIFDPQNPDENE
- rescue of decrease in cell proliferation in CRKL siRNA knockdown cells: rescued
